From the nanobody polyreactivity screen of Harvey et al. (2022)

assay: yeast display, Sf9 membrane polyspecificity reagent, FACS + sequencing; frameworks hold sequencing errors
How it was run: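 In a synthetic yeast display library (Saccharomyces cerevisiae BJ5465), nanobody expression was induced with galactose for 36–48 hours. FACS gates were set low and high (top ~1%) using anti-HA fluorescence for expression and streptavidin fluorescence for binding of the Sf9 membrane reagent. Each polyreactivity label is drawn from the gate of origin.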

| Sequence | polyreactivity (PSR sort gate) |
| --- | --- |
| QVHLVESGGVLVQAGCSLRLSCSASGSTFDFNAMGWYRQAPGKERELVAAITSGDSTNYADSVQGRFTISRDNAKNTVYLQMNSLKPEDTAVYYCAARYYWKYITSAARRAGSDYWGQGTQVTVSS | low polyreactivity |
| QVQIVESGGGLLQAGGSLPLTCAASGSTFDDNAQGWYRLAPGKERELVAAISYSGGSTYYADSVKGRFTISRDNAKNTVYLQMNSLKPEDPAVYYCAADDLYTDYETWWRRGDYWGQGTQVTVSS | low polyreactivity |
| QVQLVESGGGLVQAGGSLRLTCAASGRIFSANAMGWYRLAPGKERELVAGIDSGGSTNYADSVKGRFTISGDNAKNTVYLQMNSLKPEDTAVYYCAKYRGRGNTYNGGYDYWGQVTQVTVSS | low polyreactivity |
| QVQLVESGGGLVQAGGSHRLSCAASGRTFYRNAMGWYRPAPGKERELVAAITSGGGTTYADSVKGRFTISRDNAKNTVYLQMNSLKPEDTAVYYCAKRYNGRFRLGYEYWGQGTQVTVSS | high polyreactivity |
| QVQLVESGGCLLQAGGSLRLSCAASGFTFRKNAMGWYRDAPGKERQLVAAISSGTSTYYADSVKVRFTISRDNAKNTVYLQMNSLKPEDTAVYYCAAARYRTDDYCGQGTQVTVSS | high polyreactivity |
| QVQLVESGGGLVQAGGSLRLSCAASGRIFYPYAMGGYRQAAGKEREFVAAISSGVSTNYADSVTGRFTISRDNATTTVYLQMNSLKPEDTAVYYCARSYFRYASSYYQAVSHGYSGQGTQVTVSS | high polyreactivity |
| QVQLVESGGGLVQAGGSLRLSCAASGLTFRNYAMGWYRQAPGKEREVVADISWSGGSTYYADSVKGRFTISRDNAKITVYLQMNSLKPEDTAVYYCAARFHYPGGPRYYYWGQGTQVTVSS | high polyreactivity |
| QVQLVESGGGLDQAGGSLRLSCAASGIIFSLYAMGSYRQAPGKERELVAAISASDGDTYYADSVKGRFTISRDNAKNTVYLQMNSLKPEDTAVYYCAADATYYLGYEAEYYYWGQGTQVTVSS | low polyreactivity |
| QVQLVESGGGLVQAGGSLRLSCAASGYIFSRYAMGWYRQAPGKERELVAAITRSGTRTYYADSVKGRFTISRDNAKNTVYLQMNSLKPEDTAVYYCAKEYLYSSGFDYWGQGTQVTVSS | high polyreactivity |
| QVQLVESGGGLVQAGGSLRLSCAASGRIFSRNAMGWSRQAPGKERELVAAISRSGGTTYYADSVKGRFTISRDNAKNTVYLQMISLKPEDTAVYYCAAYFWFYVQYEYWGQGTQVTVSS | high polyreactivity |
| QVQLVESGGGLVQAGGSLRLSCAATGRISVFYTMRWYRQPPGKATELVAVIRTSVGRTNYADYVKGRFTISRVNAKNTVYLQMNSLKPEDTAVYYCAAGVVSYGYNYYYWGQGTQVTVSS | low polyreactivity |
| QVQLEESGGCLVQAGGSLRLSCAASGITFYVYAMGWSRQAPGKERELVAAISSSGGSTYYADSVTGRFTISRDNAKNTGALQMNSLKPEDTAVYYCPADKCFYYGRKYGKYDYWGQGTQVTVSS | high polyreactivity |
| QVQLVESGGGLVQAGGSLRLSCAASGLIFQEYAMGWYRQAPGKERELVAAITSGDSTNYADSVKGRFTISRDNAKNTVYLQMNSLKPEDTAVYYCNVDEAYYFVGEDNYDYWGQGTQVTVSS | low polyreactivity |
| QVQLVESGGGLVQAGGSLRLSCAASGLIFDYYAMGWYRQAPGKERELVAAISANTGRTYYADSVKGRFTISRDNAKNTVYLQMNSLKPEDTAVYYCAAYTQYDGAEFDYWGHGTQVTVSS | high polyreactivity |
| QVQLVESGGGLVQAGGSLRLSCAASGIIFRYYAMGWYRQAPGKERELVAVITRSGGSTYADSVKGRFTISRDNAKNTVYLQMNSLKPEDTAVYYCAAQWYLGYATRWRGGYWGQGTQVTVSS | high polyreactivity |
| QFQLLDSGGGLVQAGGSLRLSSAPSGFTIIGYDMGWYRQAPVKERELVAAIDWSGGSTYYADSVKGRFTISRDNAKYSVDLQMHSLKPEDTAVYYCNAEWSSKRFTGDDYWGQGTQVTVSS | low polyreactivity |
